# Source: patent US12419937B2, “High concentration alpha-glucosidase compositions for the treatment of Pompe disease” (Amicus Therapeutics, Inc., priority 2012, dated 2025)
# How the values were obtained:
# [1] = reported; cited from earlier work
# GAA KO mice [2] = test: rhGAA activity uptake after Myozyme® IV bolus in GAA KO mice (comparison study of Table 3); assay type: in vivo, mouse; conditions: 4 doses 20 mg/kg IV bolus at 2 week intervals, 3 days after the last dose
# GAA KO mice [3] = test: Tissue glycogen reduction in GAA KO mice (Example 9); assay type: in vivo, mouse; conditions: Myozyme® 40 mg/kg IV every other week for 8 weeks ± 30 mg/kg oral 1-DNJ-HCl, relative to untreated mice
# Method: Glycogen reduction with Myozyme® alone was 93±1%, 41±4%, 69±3%, and 18±4%, in heart (A), diaphragm (B), soleus (C), and quadriceps (D), respectively, relative to untreated mice.
# Twelve-week old male GAA KO mice were administered a single dose of Myozyme® (40 mg/kg) via bolus tail vein injection every other week for 8 weeks. To prevent anaphylaxis, before the third and fourth Myozyme® injection, diphenhydramine (10 mg/kg intraperitoneally) was administered 10 min before Myozyme® injection. […] Mice were euthanized 14 days after the last Myozyme® administration.
# Glycogen levels in heart, diaphragm, soleus, and quadriceps were then measured. […] Briefly, homogenates were prepared by homogenizing ˜50 mg tissue for 3-5 seconds on ice with a microhomogenizer in […] deionized water. Supernatants were heat denatured (99° C. for 10 min) to remove endogenous amyloglucosidase activity. Denatured lysates (4 μL) were then analyzed in duplicate by addition of 36 μL water with and without 10 μL of 800 U/mL of amyloglucosidase (Sigma Aldrich, St. Louis, MO) and incubated for 1 hour at 50° C. The reaction was stopped by inactivation at 100° C. for 10 min. Finally, 200 μL of glucose reagent (Sigma) was added absorbance read at 340 nm on Spectramax. A standard curve ranging from 5 μg/mL to 400 μg/mL Type III rabbit liver glycogen (Sigma) was run each day for conversion of absorbance to absolute glycogen units. Simultaneously, the amount of protein was determined in tissue homogenates using the Micro BCA Protein Assay (Pierce, Rockford, IL) following the manufacturer's instructions. The glycogen content of each sample was normalized to protein, and data were finally expressed as micrograms of glycogen per milligram of protein (μg/mg protein).
# GAA KO mice [4] = test: Myozyme® tissue uptake in GAA KO mice with and without oral 1-DNJ-HCl (Example 3); assay type: in vivo, mouse; conditions: 10 mg/kg IV weekly; 7 days post injection
# Method: Five groups of GAA KO mice were administered one of the following formulations: […]
# (2) 10 mg/kg of Myozyme® IV once per week, for up to three weeks
# Tissue homogenates were generated for analysis. Enzymatic activity as determined using a 4-MUG fluorogenic substrate assay.
# [5] = target: T1, recombinant human GAA (Myozyme®) (Homo sapiens, UniProt P10253); test: SYPRO Orange thermal stability assay (heat-induced denaturation); assay type: physicochemical; conditions: pH 5.2 vs pH 7.4; no ASSC
# T1 construct: purchased Genzyme Corp
# Text: The thermal stability assay utilizes heat to induce protein denaturation, which is monitored using a SYPRO Orange dye that fluoresces upon binding to hydrophobic amino acids (which are not exposed in a folded protein).
# FIG. 5 depicts the results of a thermal stability assay that utilizes heat to induce protein denaturation, which is monitored using a SYPRO Orange dye that fluoresces upon binding to hydrophobic amino acids (which are not exposed in a folded protein).
# Denaturation is monitored using a SYPRO Orange dye that fluoresces upon binding to hydrophobic amino acids (which are not exposed in a folded protein).
# The thermal stability was performed at pH 7.4 for two formulations, which corresponds to the pH of the ER.
# GAA KO mice [6] = test: Repeat subcutaneous dosing of rhGAA or rhGAA + 1-DNJ co-formulation in GAA KO mice (Example 13); assay type: in vivo, mouse; conditions: 4 hours after the final SQ dose
# Method: 12-week old male GAA KO mice in groups of 7 were used in the present study. Each group of mice was administered one of the following treatments:
# (2) Lumizyme® alone (20 mg/kg) delivered subcutaneously (SQ); or
# (3) Co-formulated Lumizyme® (20 mg/kg) and 1-DNJ (30 mg/kg) SQ.
# Each of the treatments were administered to their respective treatment group for a period of 2 weeks. The treatments were administered on Monday and Thursday of each week. SQ injections were administered between the shoulder blades of each mouse receiving treatment. A total of 4 doses was administered to each study animal. Diphenhydramine was administered intraperitoneally (IP) before the 3rd and 4th doses.
# rhGAA and glycogen levels were determined according to the following sampling protocol. Blood was taken from each study animal after the 4th dose for plasma pharmacokinetic analysis. GAA activity, Western blots, and 1-DNJ levels were determined for plasma samples taken 2 and 4 hours after the last SQ dose.
# Tissue samples were collected to determine rhGAA uptake 3 days following the last dose of the study (i.e., 3 days post dose 4). Tissue samples included heart, diaphragm, tongue, brain, spleen, liver, biceps, triceps, quadriceps, soleus, gastrocnemius, ventral skin and dorsal skin from the SQ injection site. Tissue samples were also collected to determine glycogen concentration 14 days following the last dose of the study (i.e., 14 days post dose 4).
# rhGAA (e.g., Myozyme®) = target: T2, rhGAA (e.g., Myozyme®) (Homo sapiens, UniProt P10253); test: rhGAA enzyme inactivation in citrate anti-coagulated whole blood at 37° C. (Examples 7, 8); assay type: in vitro ADME; conditions: for enzyme inactivated in whole blood: no 1-DNJ-HCl
# T2 construct: purchased Genzyme Corp; host or cells: Chinese hamster ovary cell line
# Method: Aliquots were collected at 0, 2, 4, 8 and 24 hrs and centrifuged to obtain plasma. These plasma samples were then diluted in potassium acetate buffer (pH 4.0) and assayed for GAA activity using the 4-methylumbeliferyl-α-glucose (4-MUG) fluorogenic substrate. The measured GAA activity for individual samples at each time point was normalized to the 0 hr and expressed as % of initial activity. Data from 4 independent experiments were analyzed to obtain the mean (and standard deviation) and plotted versus time to assess the loss of enzyme activity over this time course.
# Aliquots were collected at 0, 3 and 6 hrs and centrifuged to obtain plasma. These plasma samples were then diluted in potassium acetate buffer (pH 4.0) and assayed for GAA activity using the 4-methylumbeliferyl-α-glucose (4-MUG) fluorogenic substrate. The measured GAA activity for individual samples at each time point was normalized to the 0 hr and expressed as % of initial activity.
# Moreover, since Myozyme® has a long plasma half-life (reported to be more than 3 hrs), there is a high probability that an appreciable amount of the enzyme remains in the circulation many hours after the infusion that would also be prone to inactivation.
# Based on human plasma PK data, these concentrations are readily obtainable in the clinic.
# [7] = rat, iv
substance,measurement,setting,value
alglucosidase alfa [Myozyme®],plasma half-life,[1],more than 3 hrs
same,"rhGAA activity uptake, Biceps",GAA KO mice [2],10.1 nmol/mg/h
same,"rhGAA activity uptake, Diaphragm",GAA KO mice [2],7.1 nmol/mg/h
same,"rhGAA activity uptake, Gastrocnemius",GAA KO mice [2],17.9 nmol/mg/h
same,"rhGAA activity uptake, Heart",GAA KO mice [2],1.8 nmol/mg/h
same,"rhGAA activity uptake, Quadriceps",GAA KO mice [2],6.9 nmol/mg/h
same,"rhGAA activity uptake, Skin",GAA KO mice [2],27.1 nmol/mg/h
same,"rhGAA activity uptake, Soleus",GAA KO mice [2],8.0 nmol/mg/h
same,"rhGAA activity uptake, Tongue",GAA KO mice [2],12.4 nmol/mg/h
same,"rhGAA activity uptake, Triceps",GAA KO mice [2],3.9 nmol/mg/h
same,glycogen reduction in diaphragm,GAA KO mice [3],41±4%
same,glycogen reduction in heart,GAA KO mice [3],93±1%
same,glycogen reduction in quadriceps,GAA KO mice [3],18±4%
same,glycogen reduction in soleus,GAA KO mice [3],69±3%
same,Myozyme® tissue uptake (as a measure of GAA activity) over time,GAA KO mice [4],declined at 7 days post injection
same,stability of Myozyme® at lysosomal pH vs ER pH,[5],much more stable at lysosomal pH (5.2) than at ER pH (7.4)
"rhGAA: recombinant human acid α-glucosidase; Myozyme® in Examples 7-8, Lumizyme® in Example 13, product not named in Examples 5-6",plasma rhGAA levels,GAA KO mice [6],increased compared to the levels in the 2 hour samples
same,enzyme inactivated in whole blood,"rhGAA (e.g., Myozyme®); by 4 hrs",approximately 40%
same,enzyme inactivated in whole blood,"rhGAA (e.g., Myozyme®); by 8 hrs",~70%
same,enzyme inactivated in whole blood,"rhGAA (e.g., Myozyme®); by 24 hrs",~100%
same,enzyme activity in whole blood,"rhGAA (e.g., Myozyme®); incubated with 50 μM 1-DNJ-HCl, up to 24 hrs",remained completely active
same,in vivo half life of rhGAA,[7],1.4 ± 0.2 h
